According to PMC2118669:

Target: recombinant AIF (UniProt Q9Z0X1)
Experiment: SPR

Sequence of UniProt Q9Z0X1 (Q9Z0X1 102-612): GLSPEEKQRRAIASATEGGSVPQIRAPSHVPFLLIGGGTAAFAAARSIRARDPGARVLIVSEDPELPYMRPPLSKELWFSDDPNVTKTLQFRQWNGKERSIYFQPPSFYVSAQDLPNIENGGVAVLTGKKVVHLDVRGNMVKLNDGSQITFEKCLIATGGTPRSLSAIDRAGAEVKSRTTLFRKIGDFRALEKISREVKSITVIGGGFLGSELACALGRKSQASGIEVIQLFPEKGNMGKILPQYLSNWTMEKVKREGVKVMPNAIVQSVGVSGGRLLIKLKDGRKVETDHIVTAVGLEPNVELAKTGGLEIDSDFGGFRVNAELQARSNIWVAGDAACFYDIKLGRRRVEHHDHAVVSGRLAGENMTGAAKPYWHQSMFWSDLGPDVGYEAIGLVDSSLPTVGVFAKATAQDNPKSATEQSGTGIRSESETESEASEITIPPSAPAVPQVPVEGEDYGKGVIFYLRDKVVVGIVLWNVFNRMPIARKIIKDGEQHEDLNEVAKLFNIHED

- response (RU) on injection of 25 nM CypA: 123 RU
Substance: recombinant CypA (from UniProt P62937 1-165) (natural protein)
